Test results as given in the supplement of paper PMC10567573.

B1: STEAP1 (parent)
chain: LWKMKPRRNLEEDDYLHKDTGETS

Variants of: B1
Experiment: protein stability index of a GFP-peptide fusion (GPS, HEK-293T) (PSI 1-6); higher = more stable
Settings: c terminus: a fixed tail appended
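Also: lentivirally expressed fusions sorted by FACS into six bins by GFP to DsRed ratio, PSI derived from sequencing read proportions per bin multiplied by bin number.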

Going from LYKMKPRRNLEEDDYLHKDTGETS [W2Y] to LNKMKPRRNLEEDDYLHKDTGETS [W2N], the protein stability index falls from 4.92 to 4.82.

First: LHKMKPRRNLEEDDYLHKDTGETS [W2H]
Second: LMKMKPRRNLEEDDYLHKDTGETS [W2M]
The protein stability index of the first is higher: 4.96 for the first, 4.78 for the second.

Going from LVKMKPRRNLEEDDYLHKDTGETS [W2V] to LIKMKPRRNLEEDDYLHKDTGETS [W2I], the protein stability index rises from 4.99 to 5.05.

First: LWKNKPRRNLEEDDYLHKDTGETS [M4N]
Second: LWKHKPRRNLEEDDYLHKDTGETS [M4H]
The protein stability index of the first is lower: 4.69 for the first, 4.81 for the second.

Going from LWKQKPRRNLEEDDYLHKDTGETS [M4Q] to LWKAKPRRNLEEDDYLHKDTGETS [M4A], the protein stability index falls from 4.95 to 4.43.

Compared with LWKKKPRRNLEEDDYLHKDTGETS [M4K], LWKIKPRRNLEEDDYLHKDTGETS [M4I] is higher in protein stability index: 4.19 for the first, 4.36 for the second.

First: LWKGKPRRNLEEDDYLHKDTGETS [M4G]
Second: LWKFKPRRNLEEDDYLHKDTGETS [M4F]
The protein stability index of the first is higher: 4.86 for the first, 3.99 for the second.

Going from LWKWKPRRNLEEDDYLHKDTGETS [M4W] to LWKMKPRRNLEEDDYLSKDTGETS [H17S], the protein stability index rises from 4.14 to 4.54.

Going from LWKMKPRRNLEEDDYLQKDTGETS [H17Q] to LWKMKPRRNLEEDDYLNKDTGETS [H17N], the protein stability index falls from 4.68 to 4.28.

First: LWKMKPRRNLEEDDYLCKDTGETS [H17C]
Second: LWKMKPRRNLEEDDYLWKDTGETS [H17W]
The protein stability index of the first is higher: 4.32 for the first, 3.84 for the second.

Compared with LWKMKPRRNLEEDDYLVKDTGETS [H17V], LWKMKPRRNLEEDDYLMKDTGETS [H17M] is lower in protein stability index: 4.71 for the first, 4.29 for the second.

Compared with LWKMKPRRNLEEDDYLKKDTGETS [H17K], LWKMKPRRNLEEDDYLHKKTGETS [D19K] is lower in protein stability index: 4.38 for the first, 4.23 for the second.

First: LWKMKPRRNLEEDDYLHKCTGETS [D19C]
Second: LWKMKPRRNLEEDDYLHKMTGETS [D19M]
The protein stability index of the first is lower: 3.8 for the first, 3.81 for the second.

First: LWKMKPRRNLEEDDYLHKRTGETS [D19R]
Second: LWKMKPRRNLEEDDYLHKQTGETS [D19Q]
The protein stability index of the first is lower: 4.09 for the first, 4.1 for the second.

First: LWKMKPRRNLEEDDYLHKDQGETS [T20Q]
Second: LWKMKPRRNLEEDDYLHKDDGETS [T20D]
The protein stability index of the first is lower: 4.71 for the first, 5.09 for the second.

First: LWKMKPRRNLEEDDYLHKDYGETS [T20Y]
Second: LWKMKPRRNLEEDDYLHKDIGETS [T20I]
The protein stability index of the first is lower: 3.74 for the first, 4.12 for the second.

Going from LWKMKPRRNLEEDDYLHKDNGETS [T20N] to LWKMKPRRNLEEDDYLHKDMGETS [T20M], the protein stability index falls from 4.46 to 3.84.

Compared with LWKMKPRRNLEEDDYLHKDEGETS [T20E], LWKMKPRRNLEEDDYLHKDVGETS [T20V] is lower in protein stability index: 4.8 for the first, 4.05 for the second.

Compared with LWTMKPRRNLEEDDYLHKDTGETS [K3T], LWDMKPRRNLEEDDYLHKDTGETS [K3D] is higher in protein stability index: 4.36 for the first, 5.06 for the second.

First: LWGMKPRRNLEEDDYLHKDTGETS [K3G]
Second: LWLMKPRRNLEEDDYLHKDTGETS [K3L]
The protein stability index of the first is higher: 4.22 for the first, 3.81 for the second.

Compared with LWWMKPRRNLEEDDYLHKDTGETS [K3W], LWSMKPRRNLEEDDYLHKDTGETS [K3S] is higher in protein stability index: 3.27 for the first, 4.51 for the second.

Going from LWKMKPRRNLEEDCYLHKDTGETS [D14C] to LWKMKPRRNLEEDKYLHKDTGETS [D14K], the protein stability index rises from 4.23 to 4.53.

Going from LWKMKPRRNLEEDSYLHKDTGETS [D14S] to LWKMKPRRNLEEDRYLHKDTGETS [D14R], the protein stability index rises from 4.18 to 4.7.

Compared with LWKMKPRRNLEEDLYLHKDTGETS [D14L], LWKMKPRRNLEEDMYLHKDTGETS [D14M] is higher in protein stability index: 3.8 for the first, 4 for the second.

First: LWKMKPRRNLEEDYYLHKDTGETS [D14Y]
Second: LWKMKPRRNLEEDFYLHKDTGETS [D14F]
The protein stability index of the first is higher: 3.87 for the first, 3.74 for the second.

Going from LWKMKPRRNLEEDIYLHKDTGETS [D14I] to LWKMKPRRNLEEDPYLHKDTGETS [D14P], the protein stability index rises from 3.84 to 4.34.

First: LWKMKPRRNLEEDAYLHKDTGETS [D14A]
Second: LWKMKPRRNLEEDVYLHKDTGETS [D14V]
The protein stability index of the first is higher: 4.21 for the first, 4.07 for the second.

Going from LWKMKPRRNLEEDWYLHKDTGETS [D14W] to LWKMKPRRNLEEDDYLHKDTGMTS [E22M], the protein stability index rises from 3.11 to 3.85.

Going from LWKMKPRRNLEEDDYLHKDTGYTS [E22Y] to LWKMKPRRNLEEDDYLHKDTGATS [E22A], the protein stability index rises from 3.46 to 3.92.

First: LWKMKPRRNLEEDDYLHKDTGWTS [E22W]
Second: LWKMKPRRNLEEDDYLHKDTGPTS [E22P]
The protein stability index of the first is lower: 2.56 for the first, 3.98 for the second.

Compared with LWKMKPRRNLEEDDYLHKDTGHTS [E22H], LWKMKPRRNLEEDDYLHKDTGLTS [E22L] is higher in protein stability index: 3.89 for the first, 4.13 for the second.

Compared with LWKMKPRRNLEEDDYLHKDTGTTS [E22T], LWKMKPRRNLEEDDYLHKDTGETG [S24G] is higher in protein stability index: 3.7 for the first, 4.46 for the second.

Going from LWKMKPRRNLEEDDYLHKDTGETE [S24E] to LWKMKPRRNLEEDDYLHKDTGETK [S24K], the protein stability index falls from 4.52 to 4.47.

Going from LWKMKPRRNLEEDDYLHKDTGETF [S24F] to LWKMKPRRNLEEDDYLHKDTGETC [S24C], the protein stability index falls from 4.22 to 3.89.

Going from LWKMKPRRNLEEDDYLHKDTGETP [S24P] to LWKMKPRRNLEEDDYLHYDTGETS [K18Y], the protein stability index falls from 4.3 to 4.03.

First: LWKMKPRRNLEEDDYLHNDTGETS [K18N]
Second: LWKMKPRRNLEEDDYLHQDTGETS [K18Q]
The protein stability index of the first is higher: 4.51 for the first, 4.46 for the second.

First: LWKMKPRRNLEEDDYLHVDTGETS [K18V]
Second: LWKMKPRRNLEEDDYLHWDTGETS [K18W]
The protein stability index of the first is higher: 4.21 for the first, 3.81 for the second.

First: LWKMKPRRNLEEDDYLHGDTGETS [K18G]
Second: LWKMKPRRNLEEDDYLHLDTGETS [K18L]
The protein stability index of the first is higher: 4.73 for the first, 3.93 for the second.

Compared with LWKMKPRRNLEEDDYLHCDTGETS [K18C], LWKMKPRRNLEEDDYLHRDTGETS [K18R] is higher in protein stability index: 4.28 for the first, 4.75 for the second.

First: QWKMKPRRNLEEDDYLHKDTGETS [L1Q]
Second: HWKMKPRRNLEEDDYLHKDTGETS [L1H]
The protein stability index of the first is higher: 5.18 for the first, 4.92 for the second.

Compared with EWKMKPRRNLEEDDYLHKDTGETS [L1E], DWKMKPRRNLEEDDYLHKDTGETS [L1D] is lower in protein stability index: 5.32 for the first, 5.23 for the second.

Compared with MWKMKPRRNLEEDDYLHKDTGETS [L1M], TWKMKPRRNLEEDDYLHKDTGETS [L1T] is higher in protein stability index: 4.59 for the first, 5 for the second.

Compared with CWKMKPRRNLEEDDYLHKDTGETS [L1C], AWKMKPRRNLEEDDYLHKDTGETS [L1A] is higher in protein stability index: 4.43 for the first, 5.06 for the second.

Going from LWKMKPRRNLEEDDYLHKDTGELS [T23L] to LWKMKPRRNLEEDDYLHKDTGEQS [T23Q], the protein stability index rises from 4.12 to 4.52.

First: LWKMKPRRNLEEDDYLHKDTGESS [T23S]
Second: LWKMKPRRNLEEDDYLHKDTGEYS [T23Y]
The protein stability index of the first is higher: 4.77 for the first, 4.02 for the second.

Compared with LWKMKPRRNLEEDDYLHKDTGEAS [T23A], LWKMKPRRNLEEDDYLHKDTGEKS [T23K] is higher in protein stability index: 4.63 for the first, 4.73 for the second.

First: LWKMKPRRNLEEDDYLHKDTGEPS [T23P]
Second: LWKMKPRRNLEEDDYLHKDTGEVS [T23V]
The protein stability index of the first is higher: 4.92 for the first, 4.12 for the second.
